In PMC4102767:

Molecular target: Slx4-S486A^3Flag (budding yeast), Q12098
Test: affinity purification with mass spectrometry
Settings: remark: other sources report otherwise

Sequence of Slx4-S486A^3Flag (budding yeast), Q12098 (Q12098 whole entry S486A): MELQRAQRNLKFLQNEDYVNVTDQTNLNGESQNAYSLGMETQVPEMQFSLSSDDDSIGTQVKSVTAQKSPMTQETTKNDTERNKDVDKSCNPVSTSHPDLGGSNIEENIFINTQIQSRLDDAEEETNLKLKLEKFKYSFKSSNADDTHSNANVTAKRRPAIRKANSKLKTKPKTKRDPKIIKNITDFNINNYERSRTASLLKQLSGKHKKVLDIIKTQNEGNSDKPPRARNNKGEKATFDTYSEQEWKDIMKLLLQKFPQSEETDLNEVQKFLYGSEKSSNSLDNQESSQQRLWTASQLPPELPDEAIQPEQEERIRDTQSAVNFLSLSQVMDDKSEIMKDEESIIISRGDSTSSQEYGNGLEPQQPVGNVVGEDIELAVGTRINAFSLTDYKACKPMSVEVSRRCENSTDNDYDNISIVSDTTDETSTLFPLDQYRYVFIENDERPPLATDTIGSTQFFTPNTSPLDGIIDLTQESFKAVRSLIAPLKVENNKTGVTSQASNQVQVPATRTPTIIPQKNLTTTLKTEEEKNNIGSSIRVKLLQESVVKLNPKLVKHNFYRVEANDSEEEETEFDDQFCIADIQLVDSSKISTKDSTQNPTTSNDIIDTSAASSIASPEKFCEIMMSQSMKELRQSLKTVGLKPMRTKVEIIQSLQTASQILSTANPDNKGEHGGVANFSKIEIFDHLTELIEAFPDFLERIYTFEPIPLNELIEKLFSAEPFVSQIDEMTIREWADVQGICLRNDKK

B1: Dpb11, endogenous, P47027 1-764 (natural protein)
chain: MKPFQGITFCPTAINNEILAKKISKKIIKLGGIFSKDLTRQVNVLVVGSTTNTNKFKFAVKHRFDIIFIDIQAIDDIYQLWLSGENILPDSNTATMTGSTYEMLKILYRRFSFKYLHNFNIFIGRITDTNITSIDSLVRSIKKLGCSSYNYQNFVIKDTSSHNDDDDQGQNGQISIFVTDTLLGARVNAAIEQNIPIVHFKWILDCQKRSALLPYDPYYLLPNIKDLPYDSIGSNSCDCWDKINTTFPTNIDAQSSLQRQQSSSTLTPSLPKTSSLLNKFKPKGEKIWDKAMSLQQHSKTNFSVLGQSPLSINNKQEDLSDNSTLIFKNCAFIIHHIFPGNHRSILTKIVVQNGGKIETSYLSGIYDHSYYIIPSNKALDSFNDLPEIIDDNDGIVTEFFIERCLYYQKLLHPIDLWSKPFLSTIEFQVSSSSKLLHHEFSSSPFLNVTITGFSGVELLHLTKVLNLLKPMGINYVEYLNKSTDILLINLAALPSIPKTHPLWSNEFSDLFTQFCINNNNDDPGDNNRKDFQNNSILRNSMKRKIEYIKKFHSIPVVTPAFIFKLLSAASGENNEIFLNNIKWCIICPRGHKDDFKCKIKKPYYTSISSEKKYQNNDPKIDKTILLKRNNSSLSEHSMKDTKNELLQKIRETDSGRKKRSVSSSIMDVSSERQMPDTKRIKLESLPKNFVPKQIKRTTSWGTIMSENVPTEQPTAISNPEEIPRTEEVSHTQVTYGSIQDKKRTASLEKPMRRQTRNQTKELDS
B1 showed a fold reduction of binding against wild-type Slx4^3Flag of 8 fold.
